Assay [1] has as its target T1, recombinant cynomolgus monkey PD-L1 (cynomolgus monkey, UniProt G7PSE7 19-238).
T1 construct: also called cynomolgus macaque PD-L1
As to the kind of experiment: direct ELISA on plate-coated recombinant cynomolgus monkey PD-L1; anti-human Fc-HRP, TMB, OD 650 nm. On the procedure: To assess specificity of the selected clones, a direct ELISA for human and cynomolgus monkey PD-L1 was performed. ELISA plates were coated with recombinant human or cynomolgus monkey PD-L1. […] Serial dilutions of chimeric anti-PD-L1 antibodies were added, and a secondary HRP-conjugated, anti-human Fc-specific antibody was added. After washing, TMB substrate was added and plates were read at OD 650 nm.
Background: In an ELISA, binding on a coated surface is turned into a signal by an enzyme label.

The target of assay [2] is T2, human PD-L1 on cells (human, UniProt Q9NZQ7 19-290).
T2 construct: whole, on cells; also called HEK-PD-L1 cells; PD-L1-expressing HEK 293 cells
Description: flow cytometry on monocyte-derived dendritic cells, saturation fit on a linear axis. A general note: In flow cytometry, cells or beads pass a laser one at a time.

Assay [3] has as its target T2, human PD-L1 on cells. Description: flow cytometry on activated CD4 T cells, MFI.
Assay [4] has as its target T2, human PD-L1 on cells. Description: flow cytometry on HEK-PD-L1 cells, saturation fit on a linear axis; column head prints only Kd, unit taken from the axis Ab (nM).
Assay [5] deals with T2, human PD-L1 on cells. As to the kind of experiment: flow cytometry on HEK PD-L1 cells, saturation fit on a linear axis.
For assay [6], the target named is T2, human PD-L1 on cells. Description: flow cytometry on HEK-PD-L1 cells; PE anti-human Fc, MFI.
A further assay addresses mouse PD-L1 (mouse, UniProt Q9EP73 19-239, limits assumed). Description: assay not described.
Assay [7] addresses T3, human PD-L1-his (Sino Biologics) (human, UniProt Q9NZQ7 19-238).
T3 construct: Bought from Sino Biologics; not shown: his tag
Description: competition ELISA: human PD-L1-his coated at 1 µg/ml, antibody dilutions, then human PD-1-mouse-Fc at 1 µg/ml, anti-mouse IgG-HRP, OD 650 nm. On the procedure: Plates were coated with 100 μl of 1 μg/ml human PD-L1-his (Sino Biologics, Beijing, China) in carbonate-bicarbonate buffer overnight. After washing, plates were blocked with PBS 0.05% Tween-20 for 1 hour, and serial dilutions of anti-PD-L1 human chimeric antibody or IgG1 isotype control antibody was added. […] After washing, goat anti-mouse IgG (H+L)-HRP antibody (Jackson ImmunoResearch West Grove, Pa.) and plates were further incubated for 1 hour. After washing, TMB substrate (SurModics, Eden Prairie, Minn.) was added. The reaction was stopped using stop solution (SurModics) and plates were read at OD=650 nanometer.

Assay [8] has as its target T2, human PD-L1 on cells. Description: flow cytometry on CD4 T cells activated with anti-CD3; MFI; column head prints only EC50, unit taken from the axis Antibody Concentration (nM).
Assay [9] addresses T2, human PD-L1 on cells. As to the kind of experiment: flow cytometry on activated CD4 T cells, saturation fit on a linear axis.
Assay [10] concerns the target T2, human PD-L1 on cells. Description: flow cytometry on human PD-L1 transfected HEK 293 cells; PE anti-human Fc, MFI. As to the method: Stable human PD-L1 transfected HEK 293 cells (Crown Bio, San Diego, Calif.) were added to 96-well plates (100,000 cells/well) and serial dilution of anti-PD-L1 antibodies or IgG1 isotype control antibody was added in duplicates and plates were incubated for 30 minutes on ice. After washing, a PE-conjugated donkey anti-human Fc specific antibody (Jackson Immunoresearch, West Grove, Pa. 1:200 dilution) was added and plates were further incubated for 15 minutes on ice. After washing, cells were analyzed using a MACS quant flow cytometer.

The target in another assay is T4, recombinant human PD-L1 (human, UniProt Q9NZQ7 19-238, limits assumed).
T4 construct: also called PD-L1 protein
As to the kind of experiment: ELISA on human PD-L1, OD 650 nm.

Assay [11] concerns the target T2, human PD-L1 on cells. Description: flow cytometry on monocyte-derived dendritic cells, MFI.
The target in assay [12] is T2, human PD-L1 on cells. As to the kind of experiment: flow cytometry on monocyte-derived dendritic cells; PE anti-human Fc, MFI. As to the method:
The chimeric PD-L1 antibodies were further assessed for their ability to bind to human myeloid-derived dendritic cells. CD14 monocytes were isolated from PBMC using directly conjugated magnetic beads (Miltenyi) and cultured for 7 days in the presence of GM-CSF (100 ng/ml) and IL-4 (50 ng/ml) (Peprotech) to generate myeloid dendritic cells (mDC). mDC were added to 96-well plates (100,000 cells/well) and serial dilution of anti-PD-L1 antibodies or IgG1 isotype control antibody was added in duplicates and plates were incubated for 30 min on ice. After washing, a PE-conjugated donkey anti-human Fc specific antibody (Jackson Immunoresearch, 1:200 dilution) was added and plates were further incubated for 15 minutes on ice. After washing, cells were analyzed using a MACS quant flow cytometer.

Assay [13] concerns the target T2, human PD-L1 on cells. As to the kind of experiment: flow cytometry on HEK PD-L1 cells, MFI.

In general, EC50 (read off the curve) refers to the concentration that produces a half-maximal response. As a reminder, the Kd is the concentration at which binding is half-saturated. One may read the EC50 as the concentration that produces a half-maximal response.

T2 sequence (Q9NZQ7 19-290): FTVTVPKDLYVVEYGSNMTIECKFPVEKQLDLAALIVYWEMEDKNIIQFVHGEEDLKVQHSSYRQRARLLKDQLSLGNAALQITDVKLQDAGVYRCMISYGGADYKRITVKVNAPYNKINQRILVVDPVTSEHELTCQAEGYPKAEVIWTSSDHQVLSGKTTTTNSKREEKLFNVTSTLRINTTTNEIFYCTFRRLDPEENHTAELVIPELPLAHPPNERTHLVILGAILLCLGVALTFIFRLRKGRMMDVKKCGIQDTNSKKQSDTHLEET
T1 sequence (G7PSE7 entry or part of it limits assumed): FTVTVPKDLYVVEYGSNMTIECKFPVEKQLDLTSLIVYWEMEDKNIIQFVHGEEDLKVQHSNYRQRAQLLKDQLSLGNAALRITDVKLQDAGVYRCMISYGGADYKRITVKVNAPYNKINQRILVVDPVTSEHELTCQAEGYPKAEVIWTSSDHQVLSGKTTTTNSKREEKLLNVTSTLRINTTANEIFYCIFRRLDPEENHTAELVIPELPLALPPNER
T4 sequence (Q9NZQ7 19-238 limits assumed): as the sequence (G7PSE7 entry or part of it limits assumed) above, with T33A, S34A, N62S, Q68R, R82Q, L173F, A185T, I192T, L215H counted along it
T3 sequence (Q9NZQ7 19-238 limits assumed): as the sequence (G7PSE7 entry or part of it limits assumed) above, with T33A, S34A, N62S, Q68R, R82Q, L173F, A185T, I192T, L215H counted along it
Sequence of mouse PD-L1 (Q9EP73 19-239 limits assumed): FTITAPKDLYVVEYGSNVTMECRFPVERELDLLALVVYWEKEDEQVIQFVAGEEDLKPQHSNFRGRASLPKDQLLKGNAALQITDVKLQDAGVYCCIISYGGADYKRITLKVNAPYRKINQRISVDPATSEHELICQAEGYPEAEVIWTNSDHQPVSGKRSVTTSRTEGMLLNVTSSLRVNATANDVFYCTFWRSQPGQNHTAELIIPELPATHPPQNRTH

B1: chimeric anti-PD-L1 antibody 9A9 (antibody, human IgG1, V domains shown)
VH: QSVEESGGRLVTPGTPLTLTCTVSGIDLSGYWMSWVRQAPGKGLEYIGIVDNDGSAYYASWVNGRFTISKTSTTVDLKITSPTTEDTATYFCARQSGDWTFDLWGPGTLVTVSS
VL: DVVMTQTPASVSEPVGGTVTIKCQASQSIGRWLSWYQQKPGQPPKLLIYQASKLASGVPSRFSGSGSGTEFTLTISDLECADAATYYCQNNYDIIAYGNAFGGGTEVVVK
notes: also called c9A9; chimeric 9A9
B1: the results for the “EC50 (read off the curve)” value (in [1]; with human PD-L1 on cells [6]) were around 4 ng/mL and around 0.4 nM, respectively. Also, the dissociation constant (Kd) in the assay with human PD-L1 on cells [2] is 0.79 nM; with human PD-L1 on cells [4] it was 0.3 nM; with human PD-L1 on cells [5] it was 0.16 nM; with human PD-L1 on cells [9] it was 0.015 nM. Further, the 50% effective concentration (EC50) came to 0.019 nM in the assay with human PD-L1 on cells [3]; 0.68 nM in the assay with human PD-L1 on cells [8]; 0.17 nM in the assay with human PD-L1 on cells [10]; 7.13 ng/mL with recombinant human PD-L1; 1.66 nM in the assay with human PD-L1 on cells [11]; 0.4 nM with human PD-L1 on cells [12]. Further, a half-maximal effect in the assay with human PD-L1 on cells [13] (EC50) was put at 0.27 nM. Further, the binding result with mouse PD-L1 is “no binding”. Also, in assay [7], the “IC50 (read off the curve)” value was around 20 ng/mL.

For the origin of these results see patent publication US20190218296A1 (APEXIGEN, published 2019).
